Source: US20040253224

Tested on: Bovine submaxillary gland mucin (Sigma)

mouse AMCase (acidic mammalian chitinase)
degradation of mucin on 7.5% SDS-PAGE with silver staining after overnight incubation at 37 C, pH 5.0 (125 ug mucin, 500 ng mouse AMCase): the mucin was degraded by treatment with the AMCase | flow rate of the mucin solution, measured in a vertically positioned glass pipette, after incubation with AMCase: increased with almost a factor of 2
